Test results: the RNAGym collection of RNA variant scans (doi:10.1093/molbev/msab373)

B1: Azoarcus group I ribozyme (parent)
chain: GUGCCUUGCGCCGGGAAACCACGCAAGGGAUGGUGUCAAAUUCGGCGAAACCUAAGCGCCCGCCCGGGCGUAUGGCAACGCCGAGCCAAGCUUCGGCGCCUGCGCCGAUGAAGGUGUAGAGACUAGACGGCACCCACCUAAGGCAAACGCUAUGGUGAAGGCAUAGUCCAGGGAGUGGCGAAAGUCACACAAACCGG

Variants of: B1
Test: reverse-splicing fitness (ratio to wild type); higher = more active; in vitro selection; Mg2+ level not given
In short: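 An in vitro group I ribozyme library with randomized positions was T7-transcribed and gel-purified. In triplicate, 10 pmol RNA in EPPS pH 7.5 was reacted with 50 pmoles of a 30-nt RNA substrate for 1 h at 37 °C across several added MgCl2 levels (1–48 mM), then stopped with EDTA. Products were reverse transcribed from a substrate-complementary primer, PCR-amplified and sequenced (HiSeq 4000). Fitness is a variant's read proportion after selection over that before, normalised to wild type.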

Variant | reverse-splicing fitness
C82A A111G A120G A145C C169A U176A | 0.0117
C82A A111G A120G A145C C169A U176C | 0.00752
C82A A111G A120G C150G C169A U176G | 0.00672
C82A A111G A120G C150G C169A U176A | 0.0117
C82A A111G A120G C150G C169A U176C | 0.0123
C82A A111G A120G A145U C150U C169U U176G | 0.00555
C82A A111G A120G A145U C150U C169U U176C | 0.0152
C82A A111G A120G A145U C150U C169U U176A | 0.0192
C82A A111G A120G A145C C150A U176C | 0.00922
C82A A111G A120G A145C C150A U176A | 0.0107
C82A A111G A120G A145C C150A U176G | 0.00509
C82A A111G A120G C150A C169A U176A | 0.0228
C82A A111G A120G C150A C169A U176C | 0.0184
C82A A111G A120G C150A C169A U176G | 0.00588
C82A A111G A120G A145U U176G | 0.00583
C82A A111G A120G A145U U176C | 0.0167
C82A A111G A120G A145U U176A | 0.0131
C82A A111G A120G A145G C169G U176C | 0.0276
C82A A111G A120G A145G C169G U176G | 0.00435
C82A A111G A120G A145G C169G U176A | 0.0204
C82A A111G A120G A145G C150U C169G U176C | 0.0176

Variant | reverse-splicing fitness
C82A A111G A120G A145G C150U C169G U176G | 0.00529
C82A A111G A120G A145G C150U C169G U176A | 0.0157
C82A A111G A120G A145U C150A C169G | 0.00871
C82A A111G A120G A145U C150A C169U | 0.00754
C82A A111G A120G A145U C150A C169A | 0.00837
C82A A111G A120G A145C C150U C169U U176A | 0.0203
C82A A111G A120G A145C C150U C169U U176C | 0.0113
C82A A111G A120G A145C C150U C169U U176G | 0.00537
C82A A111G A120G A145C C150A C169G U176G | 0.00565
C82A A111G A120G A145C C150A C169G U176A | 0.027
C82A A111G A120G A145C C150A C169G U176C | 0.0158
C82A A111G A120G A145U C150A C169G U176G | 0.00478
C82A A111G A120G A145U C150A C169G U176C | 0.0169
C82A A111G A120G A145U C150A C169G U176A | 0.0145
C82A A111G A120G A145G C150A C169U U176A | 0.0192
C82A A111G A120G A145G C150A C169U U176G | 0.00673
C82A A111G A120G A145G C150A C169U U176C | 0.0184
C82A A111G A120G A145U C150U C169G U176A | 0.014
C82A A111G A120G A145U C150U C169G U176G | 0.00537
C82A A111G A120G A145U C150U C169G U176C | 0.0137
C82A A111G A120G A145C C150U C169G U176A | 0.0242

Variant | reverse-splicing fitness
C82A A111G A120G A145C C150U C169G U176C | 0.0123
C82A A111G A120G A145C C150U C169G U176G | 0.00597
C82A A111G A120G A145G C169G | 0.0122
C82A A111G A120G A145G C169A | 0.0101
C82A A111G A120G A145G C169U | 0.0111
C82A A111G A120G A145G C150G C169A | 0.00897
C82A A111G A120G A145G C150G C169U | 0.0091
C82A A111G A120G A145G C150G C169G | 0.00754
C82A A111G A120G A145C C150G U176A | 0.0058
C82A A111G A120G A145C C150G U176G | 0.00287
C82A A111G A120G A145C C150G U176C | 0.0087
C82A A111G A120G A145G C150G C169A U176G | 0.00875
C82A A111G A120G A145G C150G C169A U176A | 0.0139
C82A A111G A120G A145G C150G C169A U176C | 0.0131
C82A A111G A120G C150U | 0.0127
C82A A111G A120G C150A | 0.0105
C82A A111G A120G C150G | 0.00686
C82A A111G A120G A145C C150U C169G | 0.00885
C82A A111G A120G A145C C150U C169A | 0.00986
C82A A111G A120G A145C C150U C169U | 0.0082
C82A A111G A120G A145U C150G C169G U176A | 0.00739

Variant | reverse-splicing fitness
C82A A111G A120G A145U C150G C169G U176G | 0.00446
C82A A111G A120G A145U C150G C169G U176C | 0.00461
C82A A111G A120G C169A U176G | 0.00477
C82A A111G A120G C169A U176C | 0.0213
C82A A111G A120G C169A U176A | 0.0178
C82A A111G A120G A145G C150A C169G U176G | 0.00592
C82A A111G A120G A145G C150A C169G U176C | 0.0239
C82A A111G A120G A145G C150A C169G U176A | 0.0194
C82A A111G A120U A145C C150U C169U U176G | 0.00193
C82A A111G A120U A145C C150U C169U U176A | 0.0026
C82A A111G A120U A145C C150U C169U U176C | 0.0025
C82A A111G A120G A145C C150G C169G | 0.00751
C82A A111G A120G A145C C150G C169U | 0.00786
C82A A111G A120G A145C C150G C169A | 0.00928
C82A A111G A120G A145C C150G | 0.00656
C82A A111G A120G A145C C150U | 0.0102
C82A A111G A120U A145C C150A C169U U176C | 0.00198
C82A A111G A120U A145C C150A C169U U176A | 0.00351
C82A A111G A120U A145C C150A C169U U176G | 0.00212
C82A A111G A120G C150A C169U U176G | 0.00838
C82A A111G A120G C150A C169U U176A | 0.0244
